From patent US20110243928A1
Where “and” joins values, the source holds several entries; their conditions need not be identical. Identical values can stand only once.

Assays:
[1] = biological target: Negative control 20 mer peptide (Mimotopes); test: 16 mer peptide ELISA control well, control antibody diluted 4-fold
[2] = biological target: Positive control 20 mer peptide (Mimotopes); test: as above
[3] = biological target: Negative control 20 mer peptide (Mimotopes); test: 16 mer peptide ELISA control well, control antibody diluted 16-fold
[4] = biological target: Positive control 20 mer peptide (Mimotopes); test: as above
[5] = biological target: Negative control 20 mer peptide (Mimotopes); test: 16 mer peptide ELISA control well, control antibody diluted 32-fold
[6] = biological target: Positive control 20 mer peptide (Mimotopes); test: as above

- absorbance at 490 nm [1]: 0.077 A490 and 0.072 A490
- absorbance at 490 nm [2]: 1.5 A490 and 1.55 A490
- absorbance at 490 nm [3]: 0.08 A490 and 0.082 A490
- absorbance at 490 nm [4]: 1.2 A490 and 1.21 A490
- absorbance at 490 nm [5]: 0.072 A490 and 0.103 A490
- absorbance at 490 nm [6]: 0.739 A490 and 0.976 A490
Substance: Control Ab (Supplied with Mimotopes custom order) (antibody)
